Molecular target: the molecule itself
Experiment: cryo-EM structure; dmIR-ECD 0.2 mg/ml in SEC buffer (25 mM HEPES pH 8.0, 200 mM NaCl) incubated with 40-fold molar excess of DILP2 at room temperature for 30 min; two conformers from subsets of the particles (3.75 Å and 6.25 Å maps)

B1: Drosophila melanogaster insulin receptor ectodomain (dmIR-ECD) (domain or fragment, UniProt P09208 291-1309, looked up)
chain: LPAHQQHLLHNDIADGLDKTALSVSGTQSRWTRSESNPTMRLSQNVKPCKSMDIRNMVSHFNQLENCTVIEGFLLIDLINDASPLNRSFPKLTEVTDYIIIYRVTGLHSLSKIFPNLSVIRGNKLFDGYALVVYSNFDLMDLGLHKLRSITRGGVRIEKNHKLCYDRTIDWLEILAENETQLVVLTENGKEKECRLSKCPGEIRIEEGHDTTAIEGELNASCQLHNNRRLCWNSKLCQTKCPEKCRNNCIDEHTCCSQDCLGGCVIDKNGNESCISCRNVSFNNICMDSCPKGYYQFDSRCVTANECITLTKFETNSVYSGIPYNGQCITHCPTGYQKSENKRMCEPCPGGKCDKECSSGLIDSLERAREFHGCTIITGTEPLTISIKRESGAHVMDELKYGLAAVHKIQSSLMVHLTYGLKSLKFFQSLTEISGDPPMDADKYALYVLDNRDLDELWGPNQTVFIRKGGVFFHFNPKLCVSTINQLLPMLASKPKFFEKSDVGADSNGNRGSCGTAVLNVTLQSVGANSAMLNVTTKVEIGEPQKPSNATIVFKDPRAFIGFVFYHMIDPYGNSTKSSDDPCDDRWKVSSPEKSGVMVLSNLIPYTNYSYYVRTMAISSELTNAESDVKNFRTNPGRPSKVTEVVATAISDSKINVTWSYLDKPYGVLTRYFIKAKLINRPTRNNNRDYCTEPLVKAMENDLPATTPTKKISDPLAGDCKCVEGSKKTSSQEYDDRKVQAGMEFENALQNFIFVPNIRKSKNGSSDKSDGAEGAALDSNAIPNGGATNPSRRRRDVALEPELDDVEGSVLLRHVRSITDDTDAFFEKDDENTYKDEEDLSSNKQFYEVFAKELPPNQTHFVFEKLRHFTRYAIFVVACREEIPSEKLRDTSFKKSLCSDYDTVFQTTKRKKFADIVMDLKVDLEHANNTESPVRVRWTPPVDPNGEIVTYEVAYKLQKPDQVEEKKCIPAADFNQTAGYLIKLNEGLYSFRVRANSIAGYGDFTEVEHIKVEPPPSYA
notes: Insulin receptor (dmIR), Drosophila melanogaster, ectodomain; Expressed from codon-optimised DNA for residues 264-1309 with an added start codon; the results name the construct 291Leu-1309Ala; Described as an (αβ)2 homodimer; N-glycans are visible in the maps; also called dmIR ectodomain; 291Leu-1309Ala dmIR-ECD construct; source: Sf9 (ExpiSf9) cells, baculovirus, conditioned media, purified …
B1: binds.

Reference: doi:10.1101/2025.08.22.671756, “Structural basis of Drosophila insulin receptor activation by DILP2 hormone” (bioRxiv, 2025)
